± gives the uncertainty stated by the source.
B1: GAS2-like protein 1, residues 209 to 276; numbered along this chain, Q99501 (parent)
chain: DELVREILGRCTCPDQFPMIKVSEGKYRVGDSSLLIFVRVLRSHVMVRVGGGWDTLEHYLDKHDPCRC

Variants of: B1
Test: abundance fitness (aPCA) (normalised: wild type 0, dead -1); higher = more abundant; growth selection in yeast, the domain comes from the species named
Settings: Homo sapiens

Abundance fitness: each site, then its substitutions
W53: C -0.485 ± 0.38
G51: W -0.512 ± 0.074, H 0.004 ± 0.17, A 0.024 ± 0.072, R -0.159 ± 0.047, V -0.363 ± 0.052, T 0.032 ± 0.051, I -0.544 ± 0.12, C -0.157 ± 0.077, M -0.15 ± 0.057, D 0.176 ± 0.057, K 0.056 ± 0.065, L -0.219 ± 0.043, E 0.229 ± 0.065, P -0.206 ± 0.072, Q -0.015 ± 0.067, Y -0.286 ± 0.098
S32: Y -0.455 ± 0.096, W -0.892 ± 0.19
V38: S -0.626 ± 0.15, L -0.275 ± 0.1, N -0.737 ± 0.25, P -0.3 ± 0.12, G -0.566 ± 0.14, R -0.745 ± 0.15, M -0.587 ± 0.22, I -0.322 ± 0.22, C -0.058 ± 0.15, T -0.402 ± 0.49, Q -0.837 ± 0.42, F -0.809 ± 0.35, A -0.465 ± 0.1
R48: V -0.784 ± 0.057, L -0.495 ± 0.048, I -0.542 ± 0.11, G -0.236 ± 0.041, T -0.628 ± 0.09, K 0.142 ± 0.063, F -0.404 ± 0.078, H -0.102 ± 0.17, N 0.087 ± 0.061, E -0.191 ± 0.12, A -0.446 ± 0.063, M -0.225 ± 0.07, C -0.224 ± 0.065, D -0.256 ± 0.055, Y -0.166 ± 0.057, P -0.539 ± 0.076, Q -0.133 ± 0.076, W -0.366 ± 0.084, S 0.039 ± 0.037
R42: H 0.074 ± 0.067, V -0.639 ± 0.12, F -0.246 ± 0.074, Q -0.005 ± 0.057, L -0.541 ± 0.066, G 0.121 ± 0.05, M -0.1 ± 0.088, P -0.424 ± 0.2, W -0.289 ± 0.08, E -0.136 ± 0.11, S -0.143 ± 0.072, A -0.066 ± 0.068, Y -0.155 ± 0.069, I -0.913 ± 0.24, D 0.134 ± 0.075, T -0.334 ± 0.078, N 0.119 ± 0.069, C -0.187 ± 0.069
V49: R -0.247 ± 0.055, D 0.256 ± 0.076, A 0.007 ± 0.041, S -0.048 ± 0.042, Q 0.146 ± 0.062, N 0.013 ± 0.072, I -0.133 ± 0.058, C -0.069 ± 0.12, F -0.337 ± 0.074, Y -0.035 ± 0.058, G -0.25 ± 0.14, K -0.324 ± 0.089, L -0.319 ± 0.046, M -0.133 ± 0.06
G52: Y 0.08 ± 0.057, V 0.089 ± 0.033, T 0.109 ± 0.038, H 0.077 ± 0.049, S 0.063 ± 0.034, A 0.065 ± 0.034, K 0.136 ± 0.062, P -0.669 ± 0.093, R 0.021 ± 0.031, Q 0.166 ± 0.039, L -0.004 ± 0.031, N -0.032 ± 0.068, C -0.071 ± 0.066, F -0.068 ± 0.05, D 0.013 ± 0.044, I -0.038 ± 0.061
F37: K 0.134 ± 0.051, M 0.066 ± 0.078, C 0.154 ± 0.081, R 0.189 ± 0.031, G 0.064 ± 0.038, S 0.306 ± 0.038, N 0.31 ± 0.078, D 0.37 ± 0.089, A 0.106 ± 0.042, E 0.383 ± 0.049, V 0.054 ± 0.04, I -0.007 ± 0.068, W 0.051 ± 0.055, P 0.256 ± 0.048, Y -0.07 ± 0.12, Q 0.248 ± 0.061, L 0.141 ± 0.037
G50: Y -0.5 ± 0.12, N 0.007 ± 0.11, P -0.039 ± 0.043, F -0.896 ± 0.23, M -0.28 ± 0.085, Q -0.017 ± 0.055, D 0.076 ± 0.068, C -0.517 ± 0.078, R -0.18 ± 0.044, H -0.205 ± 0.072, S -0.143 ± 0.05, K -0.03 ± 0.05, I -0.765 ± 0.13, V -0.541 ± 0.12, L -0.473 ± 0.05, A -0.08 ± 0.086, W -0.803 ± 0.13, T -0.259 ± 0.051, E 0.011 ± 0.061
V40: Y -0.26 ± 0.31, N 0.029 ± 0.1, S -0.319 ± 0.091, Q -0.28 ± 0.19, F -0.369 ± 0.095, E -0.196 ± 0.4, R -0.025 ± 0.049, H -0.308 ± 0.14, G -0.349 ± 0.084, K 0.129 ± 0.14, C -0.097 ± 0.074, T -0.137 ± 0.095, W -0.661 ± 0.31, P -0.44 ± 0.11, M -0.259 ± 0.1
S43: F -0.175 ± 0.14, M -0.362 ± 0.12, G 0.253 ± 0.054, W -0.462 ± 0.32, P 0.01 ± 0.059, V -0.58 ± 0.11, N 0.124 ± 0.064, E 0.164 ± 0.12, L -0.648 ± 0.12, A -0.158 ± 0.076, Y -0.405 ± 0.43, T -0.011 ± 0.13
I36: P -0.592 ± 0.25, A -0.209 ± 0.076, T -0.314 ± 0.11, G -0.683 ± 0.22, S -0.673 ± 0.13, F -0.346 ± 0.11, Q -0.992 ± 0.34, Y -0.444 ± 0.15, W -0.705 ± 0.26, D -0.863 ± 0.43, R -0.542 ± 0.1, M 0.058 ± 0.11, K -0.398 ± 0.18, C 0.169 ± 0.097, V -0.017 ± 0.099, L 0.148 ± 0.056
M46: D -0.931 ± 0.37, S -0.642 ± 0.087, P -0.476 ± 0.11, G -0.666 ± 0.1, Q -0.093 ± 0.093, C -0.24 ± 0.15, A -0.596 ± 0.089, H -0.332 ± 0.095, Y 0.109 ± 0.11, K -0.601 ± 0.13, E -0.455 ± 0.14, R -0.541 ± 0.093, V -0.322 ± 0.091, L -0.056 ± 0.055, I -0.186 ± 0.14, T -0.299 ± 0.15
L41: Y 0.086 ± 0.09, A -0.148 ± 0.045, M 0.098 ± 0.062, V 0.149 ± 0.029, K -0.171 ± 0.072, C -0.09 ± 0.059, P -0.86 ± 0.1, S -0.013 ± 0.047, D 0.011 ± 0.059, I 0.148 ± 0.056, F -0.143 ± 0.054, Q 0.13 ± 0.06, R 0.042 ± 0.036, E 0.143 ± 0.051, N -0.068 ± 0.08, H 0.175 ± 0.068, G -0.293 ± 0.044, W 0.032 ± 0.041
L34: A 0.191 ± 0.043, T 0.05 ± 0.047, F -0.124 ± 0.1, Q 0.238 ± 0.063, D 0.379 ± 0.1, C 0.129 ± 0.065, Y -0.015 ± 0.074, I 0.102 ± 0.063, E 0.316 ± 0.048, M 0.131 ± 0.048, R -0.312 ± 0.043, S 0.154 ± 0.039, W -0.085 ± 0.043, N 0.094 ± 0.083, H 0.112 ± 0.12, V 0.103 ± 0.047, G 0.135 ± 0.035
V45: S -0.937 ± 0.21, C -0.227 ± 0.092, W -0.804 ± 0.23, P -0.169 ± 0.098, M -0.505 ± 0.13, L -0.328 ± 0.054, I -0.076 ± 0.055, A -0.141 ± 0.13, H -0.693 ± 0.15, R -0.847 ± 0.14, F -0.927 ± 0.23, Q -0.919 ± 0.14
D54: G 0.115 ± 0.42, L -0.346 ± 0.3
T55: H -0.399 ± 0.15, A -0.545 ± 0.074, C -0.785 ± 0.21, F -0.263 ± 0.088, D -0.431 ± 0.081, G -0.815 ± 0.11
S33: A -0.019 ± 0.043, Q 0.051 ± 0.067, D 0.039 ± 0.057, C -0.115 ± 0.048, W -0.637 ± 0.099, K 0.028 ± 0.068, H 0.014 ± 0.077, M -0.074 ± 0.054, E 0.113 ± 0.057, N 0.113 ± 0.054, P 0.01 ± 0.047, V -0.647 ± 0.061, F -0.549 ± 0.11, I -0.856 ± 0.17, Y -0.413 ± 0.065, L -0.194 ± 0.046, T -0.182 ± 0.058, R -0.043 ± 0.039
R39: C -0.216 ± 0.11, M -0.172 ± 0.097, P -0.728 ± 0.12, G -0.242 ± 0.06, Q -0.03 ± 0.067, A -0.14 ± 0.07, E -0.179 ± 0.074, T -0.058 ± 0.087, I -0.294 ± 0.068, D 0.089 ± 0.11, L -0.368 ± 0.066, V -0.236 ± 0.069, F -0.172 ± 0.09, S -0.144 ± 0.045, W -0.695 ± 0.23, H -0.049 ± 0.11, Y -0.333 ± 0.078
L35: V -0.041 ± 0.051, H -0.247 ± 0.1, W -0.64 ± 0.091, Q -0.171 ± 0.17, I 0.069 ± 0.074, C -0.013 ± 0.053, Y -0.022 ± 0.058, F -0.187 ± 0.06, K -0.227 ± 0.086, E 0.099 ± 0.087, N 0.097 ± 0.085, T 0.072 ± 0.046, A -0.111 ± 0.051, R -0.195 ± 0.052, M -0.025 ± 0.044, D -0.003 ± 0.071, G -0.383 ± 0.075
H44: P -0.731 ± 0.11, C -0.182 ± 0.18, E 0.222 ± 0.066, Q 0.103 ± 0.094, Y -0.515 ± 0.12, F -0.532 ± 0.13, K 0.007 ± 0.1, M 0.131 ± 0.092, N -0.376 ± 0.25, L -0.341 ± 0.092, R 0.142 ± 0.055, D -0.004 ± 0.066, G 0.064 ± 0.073, A -0.001 ± 0.071, T 0.074 ± 0.061, S 0.099 ± 0.074
V47: Y -0.386 ± 0.12, C -0.175 ± 0.051, N -1.01 ± 0.18, D -0.997 ± 0.16, S -1.08 ± 0.12, L -0.595 ± 0.056, T -0.783 ± 0.087, F -0.921 ± 0.2, E -0.99 ± 0.2, P -0.888 ± 0.12, R -0.979 ± 0.1, W -0.761 ± 0.13, K -0.694 ± 0.13, M -0.565 ± 0.12, G -0.851 ± 0.069, A -0.429 ± 0.051, Q -1.08 ± 0.46
